Columns and labels:
[1] = tested on: PEX39–PEX7 complex and PTS2–GFP cargo; assay: Bead-binding assay: recruitment of PTS2–GFP to PEX7- or PEX39-coated beads (Fig. 7b,c); parameters: species or system yeast (S. cerevisiae)
Description: Cysteine-containing peptides were covalently conjugated to thiol-reactive SulfoLink coupling resin (Thermo Fisher, catalogue number 20401) according to the manufacturer’s instructions. The prepared beads were then mixed with Assay Buffer containing the fluorescently labelled protein as well as additional components indicated in the text, and the resulting bead suspensions were transferred to a 384-well glass-bottomed plate (Cellvis, P384-1.5H-N). GST-fusion proteins were instead mixed with glutathione agarose 4B (Prometheus, 20-543) in Assay Buffer containing the fluorescently labelled protein and additional components indicated in the text; the resulting bead suspensions were then transferred to a glass-bottomed plate as above. The plates were incubated at RT for the durations specified in the text and directly imaged on the spinning-disk confocal platform described earlier for peroxisomal import reactions in Xenopus egg extract. Note that imaging the beads directly in the binding reaction preserves the equilibrium and thereby allows even weak interactions to be detected. Fluorescence was collected through a Nikon ×10 0.45 NA Plan Apo air objective, and images were acquired using the Nikon NIS-Elements software and a 16-bit digitizer without binning. Imaging parameters were configured to maximize the SNR while avoiding saturation. […]

PEX7–GFP in YG hydrogel = assay: YG hydrogel release assay, PEX7–GFP (Fig. 6a-c,e); type: biochemical, yeast
Description: YG hydrogels were prepared in a glass-bottomed plate as described earlier and equilibrated for 3 h at RT in Assay Buffer containing 0.5 µM PEX7–GFP or PEX5–GFP with or without PTS2 peptide and receptor at the concentrations specified in the text. Following the initial incubation, the hydrogels were imaged on a Nikon A1R point-scanning confocal system, as described earlier, with a Nikon ×10 0.45 NA Plan Apo air objective, a pinhole dilated to 1.4 Airy units and a pixel size of 2 µm. A solution of purified PEX39 was then spiked into each reaction and the hydrogels imaged every 2 min for an additional 1 h at RT.
For the PEX7-release assay from YG hydrogels, the total fluorescence within a 30-µm-wide band in the gel extending for 150 µm from the gel edge into the gel was measured at each time point. This distance was sufficient to fully encompass the permeation front of each fluorescent species. The resulting values were then normalized to the total fluorescence inside the gel at the start of the experiment and plotted as a function of time.

[2] = tested on: PEX5–GFP influx into YG hydrogel; assay: Influx of PEX5–GFP into YG hydrogel in the presence of PEX39 (Fig. 6h); type: biochemical, Xenopus laevis
Description: Fig. 6 PEX39 can extract PEX7 from the YG phase. a, YG hydrogels were prepared in a glass-bottomed dish and pre-equilibrated with PEX7–GFP. PEX39 was then added to the buffer and a point-scanning confocal microscope was used to follow the PEX7–GFP fluorescence over time. b, PEX7–GFP signal in the gel over time at the indicated molar ratios of wild-type PEX39 (relative to PEX7). […] The effect of PEX39 on the influx of PEX7–GFP into the gel was then assessed using a point-scanning confocal microscope. g, PEX7–GFP influx in the presence of the indicated molar ratios of wild-type PEX39 (relative to PEX7) with or without a fourfold excess of PTS2 peptide and either PEX5S or PEX5-21. […]
A solution of the purified wild-type YG-domain polypeptide (or the variant lacking the KPWE motif) was concentrated to 2 mM in 50 mM HEPES·NaOH pH 7.8 at RT, 2 M urea and 2 mM TCEP. […] Fluorescence was excited through a 405/488/561/647 quad-band dichroic (Chroma), using a 488-nm solid-state laser (Coherent) and a galvano scanner. […]

B1: PEX39 (WT): PEX39 from S. cerevisiae (GenBank accession no. NP_012546.4) (protein)
chain: MAAGGELSYEELLDHILNNKPIPNIVEVPNVTLDEGLASTPSLRPRPRPWEGQLQHQSHQGSLDKPNISLDIDQESLEGMTSLTRLSECYDIQSKLQINDSDNDNDDNNNDNNKGDGNDDDNNTVTANPTAR
modifications: left off: GST, N-terminal, cleaved
- Recruitment of PTS2–GFP cargo to PEX39–PEX7 [1]: PTS2–GFP cargo was indeed recruited to PEX7-coated beads in the presence of PEX39
- Extraction of PEX7–GFP from YG hydrogel (PEX7–GFP in YG hydrogel; PEX39 or mutants added to preloaded hydrogel): rapidly depleted PEX7–GFP from the hydrogel in a dose-dependent manner
- Extraction of PEX7–GFP from YG hydrogel, PEX5-21 complex (PEX7–GFP in YG hydrogel; with PTS2 peptide and PEX5-21): unable to efficiently extract PEX7–GFP
- Extraction of PEX7–GFP from YG hydrogel, PEX5S (PEX7–GFP in YG hydrogel; with PTS2 peptide and PEX5S): readily extracted
- Effect on influx of PEX5–GFP into YG hydrogel [2]: did not prevent the influx of PEX5–GFP
